Laboratory results: the supplement of paper PMC9170038

Tested on: MS2 coat protein
Test: apparent KD of MS2 coat protein; designed switch direction (-1 OFF switch, 1 ON switch): -1; higher = weaker reporter binding
In short: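 Designed RNA switches were transcribed on Illumina chips by stalled E. coli RNA polymerase and titrated with SNAP-549-labelled MS2 coat protein from 0.7 or 1.5 nM, doubling to 3 µM. Step length ran from 0.8–1.5 h at the lowest concentration to 10–20 min at the highest. The apparent KD is the median over clusters for each design, from curve-fitted normalised cluster fluorescence.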

[1] = input ligand: microRNA oligo, concentration not stated
[2] = Eterna round: R95, input ligand: microRNA oligo, concentration not stated
[3] = Eterna round: R95, input ligand: FMN 200 uM
[4] = Eterna round: R95, input ligand: none

## AAUUAUUGAUGAGGAUAUUGUGGUGAAACACGACAAGAAGGCAUUAUUCACAUGAGGAUCACCCAUGUGAGCCUGGUGCAUAUA [Ex NG1 #61] (Eterna round: R96, puzzle: Exclusion NG 1)
[1]
  apparent KD of MS2 coat protein: 0.0116 µM

## AACAUGUGAGGAUAUGUCACAUGGCUCUUCGGAGCAAGAUGACAGAAGGCACAUGAGGAUCACCCAUGUGCAUC [Ex4-3: 27] (puzzle: Exclusion 4)
[2]
  apparent KD of MS2 coat protein: 0.0116 µM

## UUAUGUAAUGUAGGAUAUCGGUCAGUUUCUGAUCGAGAAGGACAUGAGGAUCACCCAUGUAAGGCUACCGGUUUCUGGUGGCCU [JL ENG1 3.51] (Eterna round: R96, puzzle: Exclusion NG 1)
Input ligand: FMN 200 uM
  apparent KD of MS2 coat protein: 0.137 µM
[1]
  apparent KD of MS2 coat protein: 0.0207 µM
Input ligand: none
  apparent KD of MS2 coat protein: 0.0285 µM

## UCGUGGUUACUCUGCAGUUUCCUGAGCGGAGGCUCUUUGACAUGAGGAUCACCCAUGUUGCUUUUUGCUCAUCUUAA [JR_SV3TOV2_Sub041] (puzzle: Sensor v3, turn-off variant 2)
[3]
  apparent KD of MS2 coat protein: 0.0142 µM
[2]
  apparent KD of MS2 coat protein: 0.0158 µM
[4]
  apparent KD of MS2 coat protein: 0.0124 µM

## UACCGGCGGACCGAGGCUUUUUGCUCGUCUUAUGCUACGACAUGAGGAUCACCCAUGUGGUGGUGGUCCGUUGUAGU [JL ViennaUCT Bitein mod 7] (puzzle: Sensor v3, turn-off variant 2)
[3]
  apparent KD of MS2 coat protein: 0.106 µM
[2]
  apparent KD of MS2 coat protein: 0.0133 µM
[4]
  apparent KD of MS2 coat protein: 0.122 µM

## AAGAAAGGUGACAUGGGUGACAUGAGGAUCACCCAUGUUACAAGCUUGUUGCUCGUCUUAUAAUUAACCCAUGUCAC [LRO Sensor-off var1-20 mod of Stov1-13-A1 by Brourd] (Eterna round: R97, puzzle: Sensor, turn-off variant 1)
Input ligand: FMN 200 uM
  apparent KD of MS2 coat protein: 0.0156 µM
Input ligand: none
  apparent KD of MS2 coat protein: 0.0156 µM

## AUAAAUAGCGAGGAUAUCGUAUCGGAAACGAUACGAGAAGGCGUAACAUGAGGAUCACCCAUGUGUCCUCAAUA [Mat - Exclusion 6 - Eli Mod - D6] (Eterna round: R97, puzzle: Exclusion 6)
Input ligand: FMN 200 uM
  apparent KD of MS2 coat protein: 0.801 µM
Input ligand: none
  apparent KD of MS2 coat protein: 0.0872 µM

## AGUAGAUCUACGCUUGCGUGGAUCUGCAAUGUAGGUGUUACAUGAGGAUCACCCAUGUCCUCAUUUGCUCGUCUUAG [JL turnoff v2 99.10] (puzzle: Sensor v3, turn-off variant 2)
[3]
  apparent KD of MS2 coat protein: 0.259 µM
[2]
  apparent KD of MS2 coat protein: 0.81 µM

## CAAAACAGAGGAUAUACAUUUCCUCACCGCCAAAUAGCGGAACAUGAGGAUCACCCAUGUAGAAGGCUGGAAAA [Usenqura] (puzzle: Exclusion 2)
[3]
  apparent KD of MS2 coat protein: 0.384 µM
[2]
  apparent KD of MS2 coat protein: 0.0371 µM
[4]
  apparent KD of MS2 coat protein: 0.0434 µM

## UUUAAGGUAAUUAAGAUCACAUGAGGAUCACCCAUGUAUAUAUAGGAUAUCAGCUCGUGUAGAGCUGAGAAGGAUAUAUACAUA [ExNG3/6-C3] (Eterna round: R96, puzzle: Exclusion NG 3)
Input ligand: FMN 200 uM
  apparent KD of MS2 coat protein: 0.0249 µM
[1]
  apparent KD of MS2 coat protein: 0.0483 µM
Input ligand: none
  apparent KD of MS2 coat protein: 0.542 µM

## CAUGGAACGUAGGAUAUCUCGCAGCCCGGCCGCAGAGAAGGACGUACAUGAGGAUCACCCAUGUAUGAUCCAAA [Zareinon] (puzzle: Exclusion 6)
[3]
  apparent KD of MS2 coat protein: 0.0322 µM
[2]
  apparent KD of MS2 coat protein: 0.0198 µM
[4]
  apparent KD of MS2 coat protein: 0.0262 µM

## AACAGCAGCUUUUUGCGCAACAUGAGGAUCACCCAUGUUGCAUGAGCAGCGUCGGGAGGUACCGGUUUCGUUUUGUC [Eternabot (L1) Solution 45] (Eterna round: R97, puzzle: Sensor, turn-off variant 1)
Input ligand: FMN 200 uM
  apparent KD of MS2 coat protein: 0.0187 µM
Input ligand: none
  apparent KD of MS2 coat protein: 0.0181 µM

## AAGCCCUGAGGAUAUCCCAACUCGCACAUGAGGAUCACCCAUGUCCUUCUCUGGGUUUCGGGAGAAGGCAGGCCUC [Megrez-8.3] (Eterna round: R97, puzzle: Exclusion 5)
Input ligand: FMN 200 uM
  apparent KD of MS2 coat protein: 0.398 µM
Input ligand: none
  apparent KD of MS2 coat protein: 0.911 µM

## AUUUAAUUUAAUAAGAUCACAUGAGGAUCACCCAUGUAUAUAUAGGAUAUCAGCUCGUUUAGAGCUGAGAAGGAUAUAUACAUG [ExNG3/8-A2] (Eterna round: R96, puzzle: Exclusion NG 3)
Input ligand: FMN 200 uM
  apparent KD of MS2 coat protein: 0.0226 µM
[1]
  apparent KD of MS2 coat protein: 0.0202 µM
Input ligand: none
  apparent KD of MS2 coat protein: 0.0366 µM

## AUGAUGCAGUGAGGAUAUACAUGAGGAUCACCCAUGUUUUUUUUUUUAGAUACACUCCUUUUUUUGUAGAAGGCACUAUGAGUA [Skinny design] (Eterna round: R96, puzzle: Exclusion NG 2)
Input ligand: FMN 200 uM
  apparent KD of MS2 coat protein: 0.121 µM
[1]
  apparent KD of MS2 coat protein: 0.024 µM
Input ligand: none
  apparent KD of MS2 coat protein: 0.0463 µM

## AAAUAUCAUGUAGGAUAUGGAAGGCGAACCUAUCCAGAAGGACAUGAGGAUCACCCAUGUGCUGAGUUGUCCGUAGACAGCUCU [Ex NG1 #3] (Eterna round: R96, puzzle: Exclusion NG 1)
Input ligand: FMN 200 uM
  apparent KD of MS2 coat protein: 0.168 µM
[1]
  apparent KD of MS2 coat protein: 0.0271 µM
Input ligand: none
  apparent KD of MS2 coat protein: 0.031 µM

## UUGGCAGGUUUUUUGUUUGACAUGAGGAUCACCCAUGUUGCGUGGGUUGUGUGUGUGCGGUGUAUAUAUAUGGUUCU [-19.3, -40.7 kcal, A 14%] (Eterna round: R97, puzzle: Sensor, turn-off variant 1)
Input ligand: FMN 200 uM
  apparent KD of MS2 coat protein: 0.203 µM
Input ligand: none
  apparent KD of MS2 coat protein: 0.364 µM

## CACCGUAACAGAGGAUAUGAUACAUGAGGAUCACCCAUGUAAUAAAUGAGAAUUUCGAAUGUACCUCAGAAGGCUGAAACCGGC [Ostricism 81 - Jieux - Exclusion NG 2] (Eterna round: R96, puzzle: Exclusion NG 2)
Input ligand: FMN 200 uM
  apparent KD of MS2 coat protein: 0.115 µM
[1]
  apparent KD of MS2 coat protein: 0.0385 µM
Input ligand: none
  apparent KD of MS2 coat protein: 0.048 µM

## UGAUCUAGCGGAGGAUAUACAUGAGGAUCACCCAUGUAGACUCCAUGACCGUAGUCGUGGAGUGUGUAGAAGGCCGCUAGAUCU [JL ENG2 3.73] (Eterna round: R96, puzzle: Exclusion NG 2)
Input ligand: FMN 200 uM
  apparent KD of MS2 coat protein: 0.0152 µM
[1]
  apparent KD of MS2 coat protein: 0.00933 µM
Input ligand: none
  apparent KD of MS2 coat protein: 0.012 µM

## UUGUGGGUACGAAGGUGUAGUUUGAGCGUACGUUCUGUAACAUGAGGAUCACCCAUGUCGCUUUUUGCUCGUCUUAU [JR_SV3TOV2_Sub036] (puzzle: Sensor v3, turn-off variant 2)
[3]
  apparent KD of MS2 coat protein: 0.0247 µM
[2]
  apparent KD of MS2 coat protein: 0.0682 µM
[4]
  apparent KD of MS2 coat protein: 0.0248 µM

## AUUAAACAUGUAGGAUAUGCGUGGCAAAGCUAUGCAGAAGGACAUGAGGAUCACCCAUGUAAAAGCGUCUGAGUACAGAUGCAA [Mat - Exclusion NG 1 - Mod of JL - D87] (Eterna round: R96, puzzle: Exclusion NG 1)
Input ligand: FMN 200 uM
  apparent KD of MS2 coat protein: 0.374 µM
[1]
  apparent KD of MS2 coat protein: 0.0615 µM
Input ligand: none
  apparent KD of MS2 coat protein: 0.0629 µM

## AAGUACCGUCACGAAAGUGAUGGUACAGCAAGCAAAUGUACAUGAGGAUCACCCAUGUCCUCAAUUGCUCGUCUUAU [Sensor 3 - 58] (puzzle: Sensor v3, turn-off variant 2)
[3]
  apparent KD of MS2 coat protein: 0.0817 µM
[2]
  apparent KD of MS2 coat protein: 0.181 µM
[4]
  apparent KD of MS2 coat protein: 0.0874 µM

## GGGCUCGGUGUGAGGAUAUCGGGCCCGAAAGGGCCCGAGAAGGCACAUGAGGAUCACCCAUGUAAGUCGGGCUC [-38.1, -37 kcal, A 23%, 0-4] (Eterna round: R97, puzzle: Brourd's mod of Exclusion 4)
Input ligand: FMN 200 uM
  apparent KD of MS2 coat protein: 0.0136 µM
Input ligand: none
  apparent KD of MS2 coat protein: 0.0141 µM

## GAUCUGACAGGAUAUACAUGAGGAUCACCCAUGUGCGAGCUAGCGAAAGCUAGCUCAGGUAGAAGGGUCAGAUC [Ex3 dot plot directed] (puzzle: Exclusion 3)
[2]
  apparent KD of MS2 coat protein: 0.0116 µM

## AGAAACUCAAGAGGAUAUCACAUGAGGAUCACCCAUGUAUAGCGCGCUAUGCUAGUCCUCGUAUAUGAGAAGGUUUGAAAUAAG [Mat - Exclusion NG 2 - Mod of JL - D80] (Eterna round: R96, puzzle: Exclusion NG 2)
Input ligand: FMN 200 uM
  apparent KD of MS2 coat protein: 0.0164 µM
[1]
  apparent KD of MS2 coat protein: 0.0126 µM
Input ligand: none
  apparent KD of MS2 coat protein: 0.0179 µM

## AGAGUGUGAGGAUAUAUGGUAAAAGUGAAGAGAGAGGAGGAGUAGAAGGUACAUGAGGAUCACCCAUGUUUGGA [JR_Exclu4_Sub074] (puzzle: Exclusion 4)
[2]
  apparent KD of MS2 coat protein: 0.0381 µM

## AAACAGGAUGUAAGGAUAUCCAAGUGCUAAGCACGGGAGAAGGUACAUGAGGAUCACCCAUGUGGUCUUCCAAU [Quesardi] (Eterna round: R97, puzzle: Brourd's mod of Exclusion 4)
Input ligand: FMN 200 uM
  apparent KD of MS2 coat protein: 0.253 µM
Input ligand: none
  apparent KD of MS2 coat protein: 0.12 µM

## UCAGAGCGAGGAUAUGCUGGUGUUAUUCACAUUUGUCCGCGACAUGAGGAUCACCCAUGUAGAAGGCGUAGCCA [Eternabot (L2) Solution 44] (Eterna round: R97, puzzle: Exclusion 2)
Input ligand: FMN 200 uM
  apparent KD of MS2 coat protein: 0.104 µM
Input ligand: none
  apparent KD of MS2 coat protein: 0.0769 µM

## AAUUCCAAGCUCAACGUUCACAUGAGGAUCACCCAUGUCAUGAGCUGUUAUAAGUUCGGAUGUUAUAUUUUGCUCGU [Eternabot (L2) Solution 12] (Eterna round: R97, puzzle: Sensor, turn-off variant 1)
Input ligand: FMN 200 uM
  apparent KD of MS2 coat protein: 0.0146 µM
Input ligand: none
  apparent KD of MS2 coat protein: 0.015 µM

## CGUAUCUUUCACGUGAGUAGUGGGUGCAACAGGUGGGUUACAUGAGGAUCACCCAUGUCCUCACUUGCUCGUCUUAU [Grok-var2-05] (puzzle: Sensor v3, turn-off variant 2)
[3]
  apparent KD of MS2 coat protein: 0.0378 µM
[2]
  apparent KD of MS2 coat protein: 0.124 µM
[4]
  apparent KD of MS2 coat protein: 0.0375 µM

## UUAAUUCUGAUUCUUGAAAUACAUGAGGAUCACCCAUGUUCACAGGAUAUUGAUUAUGGUAGUAACAAGAAGGGUGUAUCAUUU [JR_ExcNG3_Sub040] (Eterna round: R96, puzzle: Exclusion NG 3)
Input ligand: FMN 200 uM
  apparent KD of MS2 coat protein: 0.192 µM
[1]
  apparent KD of MS2 coat protein: 0.162 µM
Input ligand: none
  apparent KD of MS2 coat protein: 0.111 µM

## GGCAAUAUGUAGGAUAUCGUAUCGGAAACGAUACGAGAAGGGCAAACAUGAGGAUCACCCAUGUUCCUUAAGCC [Fiskers Ex 6 - 10] (puzzle: Exclusion 6)
[2]
  apparent KD of MS2 coat protein: 0.0135 µM

## AUACACUGAGGAUAUACAUGAGGAUCACCCAUGUGGAAAGCCUCUGGCGGAACUUCGUGUAGAAGGCAGCCACG [Esatdi] (puzzle: Exclusion 3)
[3]
  apparent KD of MS2 coat protein: 0.018 µM
[2]
  apparent KD of MS2 coat protein: 0.0139 µM
[4]
  apparent KD of MS2 coat protein: 0.0134 µM
